Data taken from IntAct's records for PubMed 7538908.

B1: Tumor necrosis factor receptor superfamily member 6 (Homo sapiens), P25445 (parent)
chain: MLGIWTLLPLVLTSVARLSSKSVNAQVTDINSKGLELRKTVTTVETQNLEGLHHDGQFCHKPCPPGERKARDCTVNGDEPDCVPCQEGKEYTDKAHFSSKCRRCRLCDEGHGLEVEINCTRTQNTKCRCKPNFFCNSTVCEHCDPCTKCEHGIIKECTLTSNTKCKEEGSRSNLGWLCLLLLPIPLIVWVKRKEVQKTCRKHRKENQGSHESPTLNPETVAINLSDVDLSKYITTIAGVMTLSQVKGFVRKNGVNEAKIDEIKNDNVQDTAEQKVQLLRNWHQLHGKKEAYDTLIKDLKKANLCTLAEKIQTIILKDITSDSENSNFRNEIQSLV

Variants of: B1
Conditions: with ripk1_human RIPK1, Q13546
Sequence of ripk1_human RIPK1, Q13546 (Q13546 whole entry): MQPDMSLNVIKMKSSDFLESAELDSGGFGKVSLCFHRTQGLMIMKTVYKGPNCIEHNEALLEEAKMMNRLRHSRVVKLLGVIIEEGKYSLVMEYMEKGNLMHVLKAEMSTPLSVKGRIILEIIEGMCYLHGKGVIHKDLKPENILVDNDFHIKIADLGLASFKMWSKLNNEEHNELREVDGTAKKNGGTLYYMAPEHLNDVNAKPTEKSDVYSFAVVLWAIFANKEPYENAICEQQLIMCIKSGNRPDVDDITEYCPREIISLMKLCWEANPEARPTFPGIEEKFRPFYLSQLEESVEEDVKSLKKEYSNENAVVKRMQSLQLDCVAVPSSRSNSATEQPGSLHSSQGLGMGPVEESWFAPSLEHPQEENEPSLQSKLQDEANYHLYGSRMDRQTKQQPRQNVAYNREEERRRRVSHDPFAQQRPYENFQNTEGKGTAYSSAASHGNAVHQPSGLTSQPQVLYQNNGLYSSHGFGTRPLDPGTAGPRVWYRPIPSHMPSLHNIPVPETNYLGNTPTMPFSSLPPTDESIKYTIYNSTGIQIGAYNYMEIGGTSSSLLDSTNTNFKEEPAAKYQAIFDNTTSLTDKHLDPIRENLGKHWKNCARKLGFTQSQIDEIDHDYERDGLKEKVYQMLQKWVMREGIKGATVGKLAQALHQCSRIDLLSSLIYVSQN

Q: Which “effect of a mutation on the interaction” value does the source give for MLGIWTLLPLVLTSVARLSSKSVNAQVTDINSKGLELRKTVTTVETQNLEGLHHDGQFCHKPCPPGERKARDCTVNGDEPDCVPCQEGKEYTDKAHFSSKCRRCRLCDEGHGLEVEINCTRTQNTKCRCKPNFFCNSTVCEHCDPCTKCEHGIIKECTLTSNTKCKEEGSRSNLGWLCLLLLPIPLIVWVKRKEVQKTCRKHRKENQGSHESPTLNPETVAINLSDVDLSKYITTIAGVMTLSQVKGFVRKNGNNEAKIDEIKNDNVQDTAEQKVQLLRNWHQLHGKKEAYDTLIKDLKKANLCTLAEKIQTIILKDITSDSENSNFRNEIQSLV [V254N] here?
A: decreasing interaction
